According to patent US8748390B2, “Immunogenic epitopes of NGEP antigen” (The United States of America, as represented by the …, priority 2009, dated 2014):

Legend:
HLA-A2 molecules [1] = target: T1, HLA-A2 molecules (Homo sapiens, UniProt P04439, D140Y/D185E/D98H/E176V/E277Q/G131W/G231S/I119V/I121R/I166T/I218V/L300P/L318F/N151K/N90K/P208A/P217A/Q86G/Q94H/R138H/R169H/T345S); assay: T2 cell-binding assay: regulation of HLA-A2 expression on T2 cells by flow cytometry; conditions: for T2 Binding: peptide 25 μg/mL, T2 cells, flow cytometry
T1 construct: endogenous in cells; host or cells: T2 cells
Text: FIG. 1B is a graph depicting the binding of the P703 and P215 peptides to HLA-A2 molecules at various peptide concentrations. Peptide concentration (μg/mL) is on the x-axis, and mean fluorescence intensity (MFI) is on the y-axis. The positive control peptide is MUC-1, and the negative control peptide is CAP-7.
The T2 binding values are expressed in mean fluorescence intensity. The values in parentheses are fold increases as compared with the negative control (CAP-7 peptide).

HLA-A2 molecules [2] = target: T1, HLA-A2 molecules; assay: Stability of peptide-HLA-A2 complexes on T2 cells after brefeldin A; assay type: binding; conditions: peptide 25 μg/mL overnight with T2 cells, various time points
Procedure: FIG. 1A is a graph depicting the stability of HLA-A2/NGEP complexes for various peptides. The time post-treatment with brefeldin A (hours) is on the x-axis, and the percentage of remaining complexes is on the y-axis. Results are expressed in relative percentage of binding compared to 100% at time 0.
To determine the stability of peptide-MHC complexes, several of the identified peptides (at concentrations of 25 μg/mL) were incubated with T2 cells overnight. Unbound peptides were washed off, and delivery of new class 1 molecules to the cell surface was blocked by the addition of brefeldin A. Cells then were analyzed for the presence of peptide-HLA-A2 complexes at various time points, as indicated by the degree of mean fluorescence intensity. […] P703 peptide also was determined to bind T2 cells at higher levels at various peptide concentrations than the P215 peptide and the positive control (see FIG. 1B).

CD8+ T cells in PBMC = assay: Tetramer staining of PBMC from healthy donors and prostate cancer patients; assay type: cell-based, human; conditions: Patients 2, 3 and 4 of four, pre-vaccination
Procedure: To determine if prostate cancer patients recognized the NGEP-P703 epitope, PBMC from four patients with metastatic prostate cancer and from four healthy donors were analyzed for the presence of CD8^+ T cells reactive with the NGEP-P703 tetramer. T cells (5×10^5) were stained with 10 μl of PE-labeled NGEP-P703/HLA-A*0201 tetramer and anti-CD8 antibody.
These same four prostate cancer patients then were analyzed for tetramer binding after receiving six monthly cycles of a PSA-based vaccine (PSA/TRICOM).

| T2 Binding (HLA-A2 molecules [1]) | Sequence | further results |
| --- | --- | --- |
| 280 mean fluorescence intensity | ILFEILAKT [Peptide P258, NGEP long form amino acids 258-266] |  |
| 126 mean fluorescence intensity | LLAIRLWAV [Peptide P846, NGEP long form amino acids 846-854] |  |
| 203 mean fluorescence intensity | IVFEHVVFSV [Peptide P855, NGEP long form amino acids 855-864] |  |
| 354 mean fluorescence intensity | WLLPAAVVGT [Peptide P356, NGEP long form amino acids 356-365] |  |
| 565 mean fluorescence intensity | GLFDEYLEMV [Peptide P703, NGEP long form amino acids 703-712] | Binding to T2 cells at various peptide concentrations (FIG. 1B) (HLA-A2 molecules [1]; compared with P215 peptide and positive control): higher levels; Stability of peptide-HLA-A2 complexes (FIG. 1A) (HLA-A2 molecules [2]): most stable complexes; Frequency of NGEP-P703 specific CD8+ T cells, prostate cancer patients versus healthy donors (CD8+ T cells in PBMC): higher frequency |
| 185 mean fluorescence intensity | ALLSASWAV [Peptide P170, NGEP long form amino acids 170-178] |  |
| 464 mean fluorescence intensity | VLLEVVPDV [Peptide P215, NGEP long form amino acids 215-223] |  |

The next lines start with the sequence.

| Sequence | T2 Binding (HLA-A2 molecules [1]) | further results |
| --- | --- | --- |
| SLSYTNPAV [MUC-1, reference compound] | 452 mean fluorescence intensity |  |
| FLDNIRAAGL [Peptide P143, NGEP short form amino acids 143-152] | 203 mean fluorescence intensity |  |
| GLGGPPLPTL [Peptide P10, NGEP short form amino acids 10-19] | 212 mean fluorescence intensity |  |
| HLFGYSWYK [CAP-7, reference compound] | 88.0 mean fluorescence intensity |  |
| LVWEEDLKL [Peptide P113, NGEP short form amino acids 113-121] | 367 mean fluorescence intensity |  |
